B1: glmS ribozyme (parent)
chain: AUAAAAGCGCCAGAACUACAGAAAUGUAGUUGACGAGGAGGAGGUUUAUCGAAUUUUCGGCGGAUGCCUCCAAA

What all share (details): with glucosamine-6-phosphate
Series [1] covers variants of B1. Put plainly: kcat; higher = faster cleavage; RNA array. Summed up:
(§1)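 On sequenced MiSeq chips, barcoded ribozyme variants were made in situ by E. coli RNA polymerase and followed at 37 °C through a hybridised Cy3 probe. Glucosamine-6-phosphate was flowed in at 40 μM to 10 mM in HEPES/KCl/Mg(OAc)2 buffer. Exponential fits to normalised per-tile medians gave kobs, and weighted Michaelis–Menten fits gave kcat and KM.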

Series [2] covers variants of B1. Put plainly: KM; higher = weaker cofactor use; RNA array. Summed up:
as §1

Series [3] covers variants of B1. The series can be described thus: self-cleavage kobs at 640 uM GlcN6P; higher = faster cleavage; RNA array. In outline:
as §1

Series [4] covers variants of B1. Put plainly: self-cleavage kobs at 2500 uM GlcN6P; higher = faster cleavage; RNA array. Summed up: as §1
Variants of B1 are the subject of series [5]. Put plainly: self-cleavage kobs at 10000 uM GlcN6P; higher = faster cleavage; RNA array. In outline: as §1
In series [6] the parent is B1. The series can be described thus: self-cleavage kobs at 40 uM GlcN6P; higher = faster cleavage; RNA array. In outline: as §1
Variants of B1 are the subject of series [7]. Put plainly: self-cleavage kobs at 160 uM GlcN6P; higher = faster cleavage; RNA array. In outline:
as §1

± gives the standard error. For some assays here: This sample holds only a part of the variants without activity.

The kcat is the number of substrate molecules converted per active site and unit of time at saturation. In general, KM refers to the concentration of substrate that gives half-maximal velocity.

Turning to C11A U56A, the turnover number (kcat) in series [1] was 0.000143 ± 1.9e-06 s⁻¹. The KM in series [2] worked out at 2090 ± 78 µM. Moreover, in series [3], the “self-cleavage kobs at 640 uM GlcN6P” value amounted to 3.27e-05 ± 1e-05 s⁻¹. Besides, the “self-cleavage kobs at 2500 uM GlcN6P” value in series [4] was determined as 7.89e-05 ± 1.5e-05 s⁻¹. In addition, the “self-cleavage kobs at 10000 uM GlcN6P” value in series [5] is 0.000118 ± 1.3e-05 s⁻¹.
As for C10A G59A C68G U69C, in series [1], the kcat was found to be 3.77e-05 ± 1.1e-05 s⁻¹.
In the case of U30A U55C, the kcat in series [1] stood at 0.0088 ± 0.0027 s⁻¹. Moreover, in series [2], the KM is 3470 ± 1500 µM. Moreover, the “self-cleavage kobs at 40 uM GlcN6P” value in series [6] is 0.000194 ± 3.2e-05 s⁻¹. The “self-cleavage kobs at 160 uM GlcN6P” value in series [7] came out at 0.000315 ± 5.6e-05 s⁻¹. Further, the “self-cleavage kobs at 640 uM GlcN6P” value in series [3] was determined as 0.00129 ± 0.00024 s⁻¹. The “self-cleavage kobs at 2500 uM GlcN6P” value in series [4] was 0.00471 ± 0.0012 s⁻¹. In series [5], the “self-cleavage kobs at 10000 uM GlcN6P” value was 0.00647 ± 0.00073 s⁻¹.
As to A53C A64U, the kcat in series [1] is less than 1e-05 s⁻¹. The “self-cleavage kobs at 40 uM GlcN6P” value in series [6] is less than 1e-05 s⁻¹.
As for G29A C67U, the kcat in series [1] is 0.000866 ± 0.00021 s⁻¹. In addition, the KM in series [2] was 742 ± 320 µM. Moreover, in series [6], the “self-cleavage kobs at 40 uM GlcN6P” value was 4.43e-05 ± 8.6e-06 s⁻¹. In addition, the “self-cleavage kobs at 160 uM GlcN6P” value in series [7] amounted to 0.000247 ± 5.1e-05 s⁻¹. The “self-cleavage kobs at 640 uM GlcN6P” value in series [3] was 0.00034 ± 5.8e-05 s⁻¹. Moreover, the “self-cleavage kobs at 2500 uM GlcN6P” value in series [4] was determined as 0.00056 ± 0.00012 s⁻¹. In series [5], the “self-cleavage kobs at 10000 uM GlcN6P” value was found to be 0.00104 ± 0.00017 s⁻¹.
As for A14G G29C, in series [1], the kcat amounted to 0.000331 ± 6.9e-05 s⁻¹. Besides, the KM in series [2] is 1330 ± 540 µM. For the same variant, the “self-cleavage kobs at 160 uM GlcN6P” value in series [7] turned out to be 6.33e-05 ± 1.1e-05 s⁻¹. The “self-cleavage kobs at 640 uM GlcN6P” value in series [3] is 9.55e-05 ± 8.8e-06 s⁻¹. For the same variant, the “self-cleavage kobs at 2500 uM GlcN6P” value in series [4] was 0.000253 ± 2.6e-05 s⁻¹. In addition, the “self-cleavage kobs at 10000 uM GlcN6P” value in series [5] came to 0.00028 ± 2.9e-05 s⁻¹.
For the variant G40A G59U, the kcat in series [1] was 1.46e-05 ± 2.7e-06 s⁻¹. Besides, the “self-cleavage kobs at 40 uM GlcN6P” value in series [6] is less than 1e-05 s⁻¹. Further, the “self-cleavage kobs at 160 uM GlcN6P” value in series [7] was less than 1e-05 s⁻¹.
For the variant A14U G32C, in series [1], the kcat is 0.000397 ± 4e-05 s⁻¹. The KM in series [2] worked out at 3050 ± 580 µM. In addition, the “self-cleavage kobs at 640 uM GlcN6P” value in series [3] came out at 6.36e-05 ± 8.6e-06 s⁻¹. Also, the “self-cleavage kobs at 2500 uM GlcN6P” value in series [4] was found to be 0.000199 ± 1.9e-05 s⁻¹. Further, the “self-cleavage kobs at 10000 uM GlcN6P” value in series [5] stood at 0.000294 ± 2.6e-05 s⁻¹.
For A14U G32A, the kcat in series [1] is 0.0126 ± 0.0035 s⁻¹. In addition, the KM in series [2] is 3720 ± 1400 µM. Also, the “self-cleavage kobs at 40 uM GlcN6P” value in series [6] turned out to be 0.000167 ± 1.7e-05 s⁻¹. The “self-cleavage kobs at 160 uM GlcN6P” value in series [7] came to 0.00046 ± 0.00011 s⁻¹. Also, in series [3], the “self-cleavage kobs at 640 uM GlcN6P” value was 0.00156 ± 0.00027 s⁻¹. For the same variant, the “self-cleavage kobs at 2500 uM GlcN6P” value in series [4] was found to be 0.00376 ± 0.0007 s⁻¹. In series [5], the “self-cleavage kobs at 10000 uM GlcN6P” value was 0.0102 ± 0.001 s⁻¹.
Consider U31G G40A, for which the kcat in series [1] was found to be 0.00279 ± 0.00072 s⁻¹. In addition, the KM in series [2] is 1460 ± 560 µM. For the same variant, the “self-cleavage kobs at 40 uM GlcN6P” value in series [6] was determined as 0.00011 ± 2.4e-05 s⁻¹. Further, the “self-cleavage kobs at 160 uM GlcN6P” value in series [7] is 0.000269 ± 5.2e-05 s⁻¹. Besides, in series [3], the “self-cleavage kobs at 640 uM GlcN6P” value turned out to be 0.000715 ± 0.00014 s⁻¹. For the same variant, the “self-cleavage kobs at 2500 uM GlcN6P” value in series [4] was determined as 0.0018 ± 0.00027 s⁻¹. Further, the “self-cleavage kobs at 10000 uM GlcN6P” value in series [5] was 0.00301 ± 0.00099 s⁻¹.
Regarding A64U U69G, in series [1], the kcat amounted to 4.17e-05 ± 1.2e-05 s⁻¹. In series [7], the “self-cleavage kobs at 160 uM GlcN6P” value amounted to 4.51e-05 ± 1.8e-05 s⁻¹. The “self-cleavage kobs at 2500 uM GlcN6P” value in series [4] is 5.01e-05 ± 1.9e-05 s⁻¹.
For the variant U46A C61U, the kcat in series [1] is less than 1e-05 s⁻¹. In addition, the “self-cleavage kobs at 160 uM GlcN6P” value in series [7] was less than 1e-05 s⁻¹. Further, in series [3], the “self-cleavage kobs at 640 uM GlcN6P” value was less than 1e-05 s⁻¹. Besides, the “self-cleavage kobs at 2500 uM GlcN6P” value in series [4] is less than 1e-05 s⁻¹.
As for A36C C50U, the kcat in series [1] was less than 1e-05 s⁻¹. Moreover, the “self-cleavage kobs at 40 uM GlcN6P” value in series [6] was less than 1e-05 s⁻¹.
On to C10U U31A, for which the kcat in series [1] is 2.74e-05 ± 1e-06 s⁻¹. In addition, the KM in series [2] amounted to 5120 ± 380 µM.
As to U45C U56C, in series [1], the kcat was found to be 0.000492 ± 4.3e-05 s⁻¹. In addition, in series [2], the KM is 5500 ± 810 µM. Further, the “self-cleavage kobs at 640 uM GlcN6P” value in series [3] turned out to be 5.37e-05 ± 1.2e-05 s⁻¹. In series [4], the “self-cleavage kobs at 2500 uM GlcN6P” value was found to be 0.000149 ± 3e-05 s⁻¹. In series [5], the “self-cleavage kobs at 10000 uM GlcN6P” value stood at 0.000319 ± 4.5e-05 s⁻¹.
The matching figures for U30G C70G: 0.000136 ± 7.2e-06 s⁻¹, 439 ± 110 µM, 9.18e-05 ± 2.2e-05 s⁻¹, 0.000124 ± 2.3e-05 s⁻¹ and 0.000127 ± 1.4e-05 s⁻¹.
Regarding A12G G66U, in series [1], the kcat stood at 0.000245 ± 7.9e-05 s⁻¹. For the same variant, in series [4], the “self-cleavage kobs at 2500 uM GlcN6P” value is 3.43e-05 ± 7.2e-06 s⁻¹. Also, the “self-cleavage kobs at 10000 uM GlcN6P” value in series [5] came to 9.94e-05 ± 9.7e-06 s⁻¹.

Values taken from the supplement of paper PMC7125110.
